Reference: the Immune Epitope Database (IEDB)

What was measured:
Test in all cases: IEDB peptide-MHC binding, purified MHC/competitive/radioactivity; ≥ and ≤ were set here for values at or beyond the usual limits of such assays
Conditions in all cases: source organism: Homo sapiens
[1] = biological target: HLA-A*03:01
[2] = biological target: HLA-A*11:01
[3] = biological target: HLA-A*02:01
[4] = biological target: HLA-B*08:01
[5] = biological target: HLA-A*68:01
[6] = biological target: HLA-A*01:01
[7] = biological target: HLA-A*31:01
[8] = biological target: HLA-B*27:05
[9] = biological target: HLA-A*33:01
[10] = biological target: HLA-A*30:01

Sequence | IC50 [1] [µM] | IC50 [2] [µM] | IC50 [3] [µM] | IC50 [4] [µM] | IC50 [5] [µM] | IC50 [6] [µM] | IC50 [7] [µM] | IC50 [8] [µM] | IC50 [9] [µM] | IC50 [10] [µM]
VKIPVAIKT | ≥ 20 | ≥ 20 | ≥ 20 | – | – | – | – | – | – | –
KIPVAIKTSP | ≥ 20 | ≥ 20 | ≥ 20 | – | – | – | – | – | – | –
VAIKTSPK | 3.68 | 1.98 | ≥ 20 | – | – | – | – | – | – | –
AIKTSPKANKE | 1.59 | 9.92 | ≥ 20 | – | – | – | – | – | – | –
VKIPVAIKTS | ≥ 20 | ≥ 20 | ≥ 20 | – | – | – | – | – | – | –
VAIKTSPKA | ≥ 20 | ≥ 20 | ≥ 20 | – | – | – | – | – | – | –
VAIKTSPKANK | 1.85 | 1.63 | ≥ 20 | – | – | – | – | – | – | –
KITDFGLAK | – | 0.133 | – | – | – | – | – | – | – | –
AIKTSPKAN | ≥ 20 | ≥ 20 | ≥ 20 | – | – | – | – | – | – | –
PVAIKTSPK | 0.529 | 0.782 | ≥ 20 | – | – | – | – | – | – | –
RAKLLGAEEK | 6.56 | 21.7 | ≥ 50 | ≥ 50 | 28.9 | ≥ 50 | 0.817 | 10.5 | 35.6 | 1.77
PVAIKTSPKAN | 4.5 | 6.43 | ≥ 20 | – | – | – | – | – | – | –
KTSPKANK | 0.679 | 1.69 | ≥ 20 | – | – | – | – | – | – | –
IPVAIKTSPKA | ≥ 20 | ≥ 20 | ≥ 20 | – | – | – | – | – | – | –
IPVAIKTS | ≥ 20 | ≥ 20 | ≥ 20 | – | – | – | – | – | – | –
GRAKLLGAEEK | 42.9 | ≥ 50 | ≥ 50 | ≥ 50 | ≥ 50 | ≥ 50 | 4.86 | 0.0438 | ≥ 50 | ≥ 50
FGLAKLLGA | ≥ 50 | ≥ 50 | 0.107 | 0.0266 | ≥ 50 | ≥ 50 | 8.45 | 3.7 | ≥ 50 | 8.77
IKTSPKANKEI | ≥ 20 | ≥ 20 | ≥ 20 | – | – | – | – | – | – | –
PVAIKTSPKA | 9.32 | 11.6 | ≥ 20 | – | – | – | – | – | – | –
HVKITDFGL | ≥ 50 | ≥ 50 | ≥ 50 | 0.475 | ≥ 50 | ≥ 50 | 4.67 | 41.3 | 6.53 | 7.63

Sequence | IC50 [1] [µM] | IC50 [2] [µM] | IC50 [3] [µM] | IC50 [4] [µM] | IC50 [5] [µM] | IC50 [6] [µM] | IC50 [7] [µM] | IC50 [8] [µM] | IC50 [9] [µM] | IC50 [10] [µM]
AIKTSPKA | ≥ 20 | ≥ 20 | ≥ 20 | – | – | – | – | – | – | –
IKTSPKANK | 16.5 | ≥ 20 | ≥ 20 | – | – | – | – | – | – | –
KTSPKANKEIL | ≥ 20 | ≥ 20 | ≥ 20 | – | – | – | – | – | – | –
KTSPKANKEI | ≥ 20 | ≥ 20 | ≥ 20 | – | – | – | – | – | – | –
PVAIKTSP | ≥ 20 | ≥ 20 | ≥ 20 | – | – | – | – | – | – | –
VKIPVAIKTSP | ≥ 20 | ≥ 20 | ≥ 20 | – | – | – | – | – | – | –
IPVAIKTSPK | 1.66 | 3.35 | ≥ 20 | – | – | – | – | – | – | –
KIPVAIKTSPK | 0.253 | 0.862 | ≥ 20 | – | – | – | – | – | – | –
VAIKTSPKAN | ≥ 20 | ≥ 20 | ≥ 20 | – | – | – | – | – | – | –
AIKTSPKANK | 0.584 | 4.65 | ≥ 20 | – | – | – | – | – | – | –
KIPVAIKTS | ≥ 20 | ≥ 20 | ≥ 20 | – | – | – | – | – | – | –
KIPVAIKT | ≥ 20 | ≥ 20 | ≥ 20 | – | – | – | – | – | – | –
IKTSPKAN | ≥ 20 | ≥ 20 | ≥ 20 | – | – | – | – | – | – | –
IKTSPKANKE | ≥ 20 | ≥ 20 | ≥ 20 | – | – | – | – | – | – | –
LAKLLGAEEK | 43.5 | ≥ 50 | ≥ 50 | ≥ 50 | 2.01 | ≥ 50 | 29.9 | ≥ 50 | 20.3 | 37.3
KVKIPVAIKT | 0.397 | 10.2 | ≥ 20 | – | – | – | – | – | – | –
EKVKIPVAIKT | 11.2 | 15.1 | ≥ 20 | – | – | – | – | – | – | –
KVKIPVAIKTS | 0.508 | 11.4 | ≥ 20 | – | – | – | – | – | – | –
GLAKLLGAEEK | 0.664 | ≥ 50 | ≥ 50 | 3.37 | ≥ 50 | ≥ 50 | 1.06 | 14.7 | ≥ 50 | ≥ 50
